The values that follow come from patent US20150344570A1 (published 2015).

In this assay the target is T1, FcγRIIb extracellular domain with C-terminal His tag (human, UniProt P31994 43-217).
T1 construct: extracellular domain; also called FcgRIIb; 2b
T1 sequence (looked up): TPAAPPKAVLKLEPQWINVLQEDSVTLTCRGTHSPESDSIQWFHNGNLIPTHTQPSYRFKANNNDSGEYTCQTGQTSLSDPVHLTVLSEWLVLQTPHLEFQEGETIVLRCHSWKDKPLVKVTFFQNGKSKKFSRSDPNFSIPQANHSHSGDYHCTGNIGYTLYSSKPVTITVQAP
The assay is described as follows: SPR (Biacore), relative binding. The procedure: Analysis of interaction between objective antibody and the FcγR was carried out using Biacore T100 (GE Healthcare). HBS-EP+ (GE Healthcare) was used as the running buffer, and the measurement temperature was set to 25° C. Chips produced by immobilizing the antigen peptide by the amine coupling method to a Series S Sencor Chip CM5 (GE Healthcare), or alternatively, chips produced by allowing preliminarily biotinylated antigen peptides to interact with and immobilize onto a Series S Sensor Chip SA (certified) (GE Healthcare) were used. Antibodies of interest were captured onto an antigen peptide-immobilized chip, and allowed to interact to each FcγR diluted with running buffer. To regenerate and repeatedly use the chip, the antibodies captured on the chip were washed off by reacting 10 mM glycine-HCl, pH 1.5.

B1: GpH7-B3 variant P238_10E/GpL16-k0 (antibody, human IgG1, kappa)
heavy: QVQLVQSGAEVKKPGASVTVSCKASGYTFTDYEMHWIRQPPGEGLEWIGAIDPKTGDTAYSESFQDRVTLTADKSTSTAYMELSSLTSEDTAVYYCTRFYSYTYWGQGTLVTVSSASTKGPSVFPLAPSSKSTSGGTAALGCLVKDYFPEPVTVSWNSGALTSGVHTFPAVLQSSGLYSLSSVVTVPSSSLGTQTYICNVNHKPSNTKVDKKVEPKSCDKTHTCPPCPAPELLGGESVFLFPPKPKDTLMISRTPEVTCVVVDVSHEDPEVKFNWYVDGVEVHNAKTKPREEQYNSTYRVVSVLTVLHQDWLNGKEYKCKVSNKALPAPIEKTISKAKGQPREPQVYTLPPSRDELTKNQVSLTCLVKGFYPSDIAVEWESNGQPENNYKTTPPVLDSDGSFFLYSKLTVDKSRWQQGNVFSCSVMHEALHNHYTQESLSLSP
light: DIVMTQSPLSLPVTPGEPASISCQASESLVHSNRNTYLHWYLQKPGQSPQLLIYKVSNRFSGVPDRFSGSGSGTDFTLKISRVEAEDVGVYYCSQNTHVPPTFGQGTKVEIERTVAAPSVFIFPPSDEQLKSGTASVVCLLNNFYPREAKVQWKVDNALQSGNSQESVTEQDSKDSTYSLSSTLTLSKADYEKHKVYACEVTHQGLSSPVTKSFNRGEC
notes: also called Ho Ab P238_10E
Take B1: the Ho/Con_2b was 97.9 % of HoCon Ab GpH7-B3/GpL16-k0.

B2: GpH7-B3 variant P238_16H/GpL16-k0 (antibody, human IgG1, kappa)
heavy: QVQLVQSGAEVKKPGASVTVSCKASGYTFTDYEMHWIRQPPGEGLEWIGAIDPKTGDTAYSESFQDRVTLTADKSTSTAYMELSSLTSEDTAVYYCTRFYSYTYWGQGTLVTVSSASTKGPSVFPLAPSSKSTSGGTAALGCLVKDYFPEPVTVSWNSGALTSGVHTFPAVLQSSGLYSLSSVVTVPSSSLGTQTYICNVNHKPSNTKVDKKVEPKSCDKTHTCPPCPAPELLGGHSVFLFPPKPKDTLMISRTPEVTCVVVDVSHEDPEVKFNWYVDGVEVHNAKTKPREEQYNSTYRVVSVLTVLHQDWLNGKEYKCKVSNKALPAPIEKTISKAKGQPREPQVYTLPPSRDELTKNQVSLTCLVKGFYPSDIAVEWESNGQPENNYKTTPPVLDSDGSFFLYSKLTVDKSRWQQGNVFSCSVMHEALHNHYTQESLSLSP
light: DIVMTQSPLSLPVTPGEPASISCQASESLVHSNRNTYLHWYLQKPGQSPQLLIYKVSNRFSGVPDRFSGSGSGTDFTLKISRVEAEDVGVYYCSQNTHVPPTFGQGTKVEIERTVAAPSVFIFPPSDEQLKSGTASVVCLLNNFYPREAKVQWKVDNALQSGNSQESVTEQDSKDSTYSLSSTLTLSKADYEKHKVYACEVTHQGLSSPVTKSFNRGEC
notes: also called Ho Ab P238_16H
Take B2: the Ho/Con_2b is 18.8 % of HoCon Ab GpH7-B3/GpL16-k0.

B3: GpH7-B3 variant P238_19Q/GpL16-k0 (antibody, human IgG1, kappa)
heavy: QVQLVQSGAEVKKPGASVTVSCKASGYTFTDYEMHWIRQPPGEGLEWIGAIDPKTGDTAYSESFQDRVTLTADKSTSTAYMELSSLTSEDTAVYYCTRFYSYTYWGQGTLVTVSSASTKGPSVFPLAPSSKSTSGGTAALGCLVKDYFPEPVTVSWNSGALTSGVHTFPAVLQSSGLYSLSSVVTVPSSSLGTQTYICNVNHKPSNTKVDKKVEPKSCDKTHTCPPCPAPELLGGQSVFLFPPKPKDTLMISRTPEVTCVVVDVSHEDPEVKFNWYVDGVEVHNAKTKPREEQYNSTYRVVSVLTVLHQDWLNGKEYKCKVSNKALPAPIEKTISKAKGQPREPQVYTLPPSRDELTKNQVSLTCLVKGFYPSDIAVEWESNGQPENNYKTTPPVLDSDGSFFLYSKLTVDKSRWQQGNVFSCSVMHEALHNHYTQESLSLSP
light: DIVMTQSPLSLPVTPGEPASISCQASESLVHSNRNTYLHWYLQKPGQSPQLLIYKVSNRFSGVPDRFSGSGSGTDFTLKISRVEAEDVGVYYCSQNTHVPPTFGQGTKVEIERTVAAPSVFIFPPSDEQLKSGTASVVCLLNNFYPREAKVQWKVDNALQSGNSQESVTEQDSKDSTYSLSSTLTLSKADYEKHKVYACEVTHQGLSSPVTKSFNRGEC
notes: also called Ho Ab P238_19Q
For B3, the Ho/Con_2b is 42.7 % of HoCon Ab GpH7-B3/GpL16-k0.

B4: GpH7-B3 variant P238_20W/GpL16-k0 (antibody, human IgG1, kappa)
heavy: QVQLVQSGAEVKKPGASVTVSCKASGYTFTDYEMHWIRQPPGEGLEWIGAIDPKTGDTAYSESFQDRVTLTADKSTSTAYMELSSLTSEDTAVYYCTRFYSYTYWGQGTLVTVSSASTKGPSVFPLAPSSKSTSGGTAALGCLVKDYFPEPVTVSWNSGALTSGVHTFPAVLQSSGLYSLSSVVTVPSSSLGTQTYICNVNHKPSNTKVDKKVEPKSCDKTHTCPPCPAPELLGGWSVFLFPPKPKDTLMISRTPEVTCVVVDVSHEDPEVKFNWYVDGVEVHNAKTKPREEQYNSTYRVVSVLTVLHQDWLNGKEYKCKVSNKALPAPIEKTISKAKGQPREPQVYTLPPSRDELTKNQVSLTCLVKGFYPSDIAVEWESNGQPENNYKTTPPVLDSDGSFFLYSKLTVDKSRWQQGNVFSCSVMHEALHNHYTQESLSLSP
light: DIVMTQSPLSLPVTPGEPASISCQASESLVHSNRNTYLHWYLQKPGQSPQLLIYKVSNRFSGVPDRFSGSGSGTDFTLKISRVEAEDVGVYYCSQNTHVPPTFGQGTKVEIERTVAAPSVFIFPPSDEQLKSGTASVVCLLNNFYPREAKVQWKVDNALQSGNSQESVTEQDSKDSTYSLSSTLTLSKADYEKHKVYACEVTHQGLSSPVTKSFNRGEC
notes: also called Ho Ab P238_20W
Turning to B4, the Ho/Con_2b was 12.6 % of HoCon Ab GpH7-B3/GpL16-k0.

B5: GpH7-B3 variant P271_09D/GpL16-k0 (antibody, human IgG1, kappa)
heavy: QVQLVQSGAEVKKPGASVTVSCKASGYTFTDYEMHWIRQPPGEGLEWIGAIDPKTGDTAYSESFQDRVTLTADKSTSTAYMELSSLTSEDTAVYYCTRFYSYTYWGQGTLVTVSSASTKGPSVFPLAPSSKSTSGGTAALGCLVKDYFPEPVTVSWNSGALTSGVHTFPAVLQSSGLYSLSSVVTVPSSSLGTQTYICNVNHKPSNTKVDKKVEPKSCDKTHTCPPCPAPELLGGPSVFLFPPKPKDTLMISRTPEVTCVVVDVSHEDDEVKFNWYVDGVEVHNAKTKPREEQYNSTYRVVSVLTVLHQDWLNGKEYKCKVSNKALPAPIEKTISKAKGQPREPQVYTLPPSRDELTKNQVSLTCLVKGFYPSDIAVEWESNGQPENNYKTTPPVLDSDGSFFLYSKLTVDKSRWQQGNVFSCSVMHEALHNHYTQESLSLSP
light: DIVMTQSPLSLPVTPGEPASISCQASESLVHSNRNTYLHWYLQKPGQSPQLLIYKVSNRFSGVPDRFSGSGSGTDFTLKISRVEAEDVGVYYCSQNTHVPPTFGQGTKVEIERTVAAPSVFIFPPSDEQLKSGTASVVCLLNNFYPREAKVQWKVDNALQSGNSQESVTEQDSKDSTYSLSSTLTLSKADYEKHKVYACEVTHQGLSSPVTKSFNRGEC
notes: also called Ho Ab P271_09D
B5: the Ho/Con_2b was 100 % of HoCon Ab GpH7-B3/GpL16-k0.

B6: GpH7-B3 variant P331_03V/GpL16-k0 (antibody, human IgG1, kappa)
heavy: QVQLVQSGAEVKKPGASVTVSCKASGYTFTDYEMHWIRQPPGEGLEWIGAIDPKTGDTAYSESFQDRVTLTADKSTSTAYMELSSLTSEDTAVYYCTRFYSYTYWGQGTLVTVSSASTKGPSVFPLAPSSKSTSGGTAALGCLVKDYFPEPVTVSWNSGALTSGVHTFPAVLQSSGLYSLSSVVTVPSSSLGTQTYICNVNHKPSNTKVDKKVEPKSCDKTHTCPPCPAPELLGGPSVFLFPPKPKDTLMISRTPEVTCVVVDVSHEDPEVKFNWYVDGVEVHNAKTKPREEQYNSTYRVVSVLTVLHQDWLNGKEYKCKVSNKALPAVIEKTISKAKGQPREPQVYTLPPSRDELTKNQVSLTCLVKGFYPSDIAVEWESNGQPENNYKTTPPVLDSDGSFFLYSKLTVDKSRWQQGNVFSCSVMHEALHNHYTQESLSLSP
light: DIVMTQSPLSLPVTPGEPASISCQASESLVHSNRNTYLHWYLQKPGQSPQLLIYKVSNRFSGVPDRFSGSGSGTDFTLKISRVEAEDVGVYYCSQNTHVPPTFGQGTKVEIERTVAAPSVFIFPPSDEQLKSGTASVVCLLNNFYPREAKVQWKVDNALQSGNSQESVTEQDSKDSTYSLSSTLTLSKADYEKHKVYACEVTHQGLSSPVTKSFNRGEC
notes: also called Ho Ab P331_03V
Turning to B6, the Ho/Con_2b is 86.6 % of HoCon Ab GpH7-B3/GpL16-k0.

B7: GpH7-B3 variant P271_10E/GpL16-k0 (antibody, human IgG1, kappa)
heavy: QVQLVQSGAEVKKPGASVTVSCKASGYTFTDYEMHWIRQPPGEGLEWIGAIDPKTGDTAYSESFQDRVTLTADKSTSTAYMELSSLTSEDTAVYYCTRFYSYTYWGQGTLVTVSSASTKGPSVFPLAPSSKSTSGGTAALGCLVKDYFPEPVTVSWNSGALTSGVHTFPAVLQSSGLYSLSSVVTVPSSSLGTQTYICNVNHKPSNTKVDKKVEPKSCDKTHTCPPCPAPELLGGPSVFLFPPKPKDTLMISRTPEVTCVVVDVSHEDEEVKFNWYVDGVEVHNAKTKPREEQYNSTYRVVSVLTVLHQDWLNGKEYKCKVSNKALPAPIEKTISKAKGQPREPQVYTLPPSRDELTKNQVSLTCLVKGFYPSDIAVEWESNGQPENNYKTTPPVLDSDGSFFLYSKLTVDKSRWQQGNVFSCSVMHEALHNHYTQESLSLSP
light: DIVMTQSPLSLPVTPGEPASISCQASESLVHSNRNTYLHWYLQKPGQSPQLLIYKVSNRFSGVPDRFSGSGSGTDFTLKISRVEAEDVGVYYCSQNTHVPPTFGQGTKVEIERTVAAPSVFIFPPSDEQLKSGTASVVCLLNNFYPREAKVQWKVDNALQSGNSQESVTEQDSKDSTYSLSSTLTLSKADYEKHKVYACEVTHQGLSSPVTKSFNRGEC
notes: also called Ho Ab P271_10E
Turning to B7, the Ho/Con_2b is 95 % of HoCon Ab GpH7-B3/GpL16-k0.

B8: GpH7-B3 variant P238_15Y/GpL16-k0 (antibody, human IgG1, kappa)
heavy: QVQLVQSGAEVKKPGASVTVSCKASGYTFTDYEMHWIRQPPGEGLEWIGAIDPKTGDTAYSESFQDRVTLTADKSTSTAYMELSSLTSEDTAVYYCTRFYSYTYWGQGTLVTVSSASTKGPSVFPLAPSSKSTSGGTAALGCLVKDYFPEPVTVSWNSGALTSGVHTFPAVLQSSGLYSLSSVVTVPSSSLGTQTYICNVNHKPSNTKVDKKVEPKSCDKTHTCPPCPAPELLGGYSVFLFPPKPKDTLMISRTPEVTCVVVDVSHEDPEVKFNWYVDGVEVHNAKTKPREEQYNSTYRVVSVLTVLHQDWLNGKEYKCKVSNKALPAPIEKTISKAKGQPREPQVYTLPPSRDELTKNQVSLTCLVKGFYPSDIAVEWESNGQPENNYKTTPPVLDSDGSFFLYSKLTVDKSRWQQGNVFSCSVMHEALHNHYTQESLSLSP
light: DIVMTQSPLSLPVTPGEPASISCQASESLVHSNRNTYLHWYLQKPGQSPQLLIYKVSNRFSGVPDRFSGSGSGTDFTLKISRVEAEDVGVYYCSQNTHVPPTFGQGTKVEIERTVAAPSVFIFPPSDEQLKSGTASVVCLLNNFYPREAKVQWKVDNALQSGNSQESVTEQDSKDSTYSLSSTLTLSKADYEKHKVYACEVTHQGLSSPVTKSFNRGEC
notes: also called Ho Ab P238_15Y
Take B8: the Ho/Con_2b was 114 % of HoCon Ab GpH7-B3/GpL16-k0.
